One assay addresses RB3-AMH (rat) (UniProt Q8K418). Description: cell-based or functional assay.
In the next assay the target is RB3-IF (rat) (UniProt Q8K418). The assay can be described thus: cell-based or functional assay.
The next assay has as its target RB3-SQT (rat) (UniProt Q8K418). Description: cell-based or functional assay.
In a further assay the target is RB3-VD (rat) (UniProt Q8K418). Description: cell-based or functional assay.
In another assay the target is RBB3-E3 (rat; human) (UniProt Q8K418). The assay can be described thus: cell-based or functional assay.
In assay [1] the target is human bombesin receptor subtype-3 (human) (UniProt P32247). The assay can be described thus: cell-based or functional assay.
The target of assay [2] is rat bombesin receptor subtype-3 (rat) (UniProt Q8K418). The assay can be described thus: cell-based or functional assay.
For assay [3] the target is unchanged. Description: summary statement in the description; assay not named.
Assay [4] deals with T1, rat BRS-3 (Rattus norvegicus, UniProt Q8K418).
T1 construct: utilized to PCR amplify full-length rat BRS-3 cDNA; expressed in transfected cells; host or cells: 293EBNA cells, pE3 expression vector
T1 sequence (Q8K418 1-399): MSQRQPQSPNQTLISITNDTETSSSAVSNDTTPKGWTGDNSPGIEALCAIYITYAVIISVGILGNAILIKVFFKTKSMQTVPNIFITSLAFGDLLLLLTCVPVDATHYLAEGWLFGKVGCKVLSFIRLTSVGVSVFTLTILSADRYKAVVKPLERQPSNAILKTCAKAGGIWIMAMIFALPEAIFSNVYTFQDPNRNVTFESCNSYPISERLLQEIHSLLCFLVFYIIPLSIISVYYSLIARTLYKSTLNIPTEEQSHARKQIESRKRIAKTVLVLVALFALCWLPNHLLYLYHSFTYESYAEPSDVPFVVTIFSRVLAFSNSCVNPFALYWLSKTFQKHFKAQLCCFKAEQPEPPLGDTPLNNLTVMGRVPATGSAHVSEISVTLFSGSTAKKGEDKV
The assay can be described thus: Phosphatidylinositol hydrolysis functional assay. As to conditions: peptide at 10 uM, transfected 293EBNA cells. Type of assay: cell-based. Here is the method:
(§1) Wild type and mutant BRS-3 constructs were transfected by using lipofectamine reagents (Life Technologies, Rockville, Md.) into 293EBNA cells (Invitrogen, Carlsbad, Calif.) which support episomal replication of plasmid containing Epstein Bar virus OriP segment. Stable cell lines were obtained by selection with 250 ug/ml hygromycin. The cells were maintained as monolayers in Dulbecco's modified Eagle's medium (Life Technologies, Rockville, Md.) supplemented with 10% fetal bovine serum and incubated at 37° C. in a humidified 5% CO2 incubator.
The functional properties of rat BRS-3 were characterized in transfected 293EBNA cells. The transfected 293EBNA cells were plated onto poly-D-lysine coated 12-well plates and incubated in the medium containing 2 uCi/ml [^3H]myo-inositol. The cells were labeled for 48 hrs, and subsequently incubated for 30 minutes in Hank's balanced salt solution containing 10 mM HEPES, 0.1% BSA and 10 mM LiCl.
Since a natural agonist of BRS-3 has not been found, members of the bombesin-like peptide family, including GRP, NMB, bombesin and dYB, were used to stimulate the transfected cells described above, in the same buffer, for 1 hr at 37° C. The reaction was stopped by removal of medium and addition of 10 mM formic acid. The inositol monophosphate fraction was then isolated by anion chromatography as described (Berridge et al. Biochem. J. 212: 473-482 (1983), which is hereby incorporated by reference).

In assay [5] the target is T1, rat BRS-3. Description: Calcium mobilization assay (FLIPR), transfected 293EBNA cells. Type of assay: cell-based. Here is the method: as §1
The functional activity of rat BRS-3 was also studied by measuring the agonist-induced calcium mobilization response using a Fluorescence Imaging Plate Reader (Molecular Devices, Sunnyvale, Calif.). Transfected 293EBNA cells were plated onto poly-D-lysine coated 96-well plates with black wall and clear bottom (Becton Dickinson, Franklin Lakes, N.J.). After 16-48 hr culture, the cells were loaded with 4 uM Fluo-3-AM fluorescent calcium-indicator dye (Molecular Probes, Eugene, OR) in assay buffer (Hank's balanced salts solution, 10 mM HEPES, pH7.4, 0.1% bovine serum albumin, 2.5 mM probenecid).
The changes in intracellular calcium concentration, as indicated by Fluo-3 fluorescence, were immediately measured by FLIPR. Maximal changes in fluorescence over base line were used to determine agonist response.
The EC50 values were mean±S.E. calculated from dose-response curves of 3-5 repeated experiments using FLIPR assays.
Background: Calcium assays in cells follow changes in intracellular calcium, usually with a dye or a luminescent sensor.

The target of the next assay is T2, RBB3-E3 (Rattus norvegicus, UniProt Q8K418, A302V/D306A/E299Q/E303D/P308H/S300T/V307M/V310I/V311F/Y298S).
T2 construct: expressed in transfected cells; host or cells: 293EBNA cells, pE3 expression vector
T2 sequence (Q8K418 1-399 Y298S/E299Q/S300T/A302V/E303D/D306A/V307M/P308H/V310I/V311F): T1 sequence (Q8K418 1-399) with Y298S, E299Q, S300T, A302V, E303D, D306A, V307M, P308H, V310I, V311F
The assay can be described thus: Radioligand binding assay with 125I-dYB. Further details: species or system rat/human. As to conditions: competition with [125I]dYB. Here is the method: After removal of cell nuclei by a low speed centrifugation (1000×g) step, the cell membrane proteins were collected by centrifugation at 35,000×g for 20 minutes. The membrane protein concentration was determined by the Bradford method using BSA as standard.
After a 2 hr incubation at room temperature, the binding reaction was terminated by filtering through a GF/c filter-mate and washing the filter with binding buffer using Packard 96-well Topcount Harvester. The amount of radioligand bound to the receptor was determined by measurement of the radioactivity on the filter through liquid scintillation counting. The non-specific binding was defined as the binding in the presence of 1 uM unlabeled dYB.

Positions count from the first letter of the chain named. No end group written: not given here.

human bombesin receptor subtype-3 (human), sequence (P32247 whole entry): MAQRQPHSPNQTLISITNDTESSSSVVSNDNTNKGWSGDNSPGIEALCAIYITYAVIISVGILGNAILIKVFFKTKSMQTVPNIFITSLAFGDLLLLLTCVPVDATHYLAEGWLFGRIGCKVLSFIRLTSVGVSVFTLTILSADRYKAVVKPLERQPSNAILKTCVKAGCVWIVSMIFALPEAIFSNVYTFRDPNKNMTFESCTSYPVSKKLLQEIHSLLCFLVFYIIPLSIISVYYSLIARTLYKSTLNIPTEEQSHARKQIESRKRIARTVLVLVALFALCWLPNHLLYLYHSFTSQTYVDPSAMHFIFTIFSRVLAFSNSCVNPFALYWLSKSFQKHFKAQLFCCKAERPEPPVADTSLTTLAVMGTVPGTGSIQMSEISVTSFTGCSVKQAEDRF

With “[D-Tyr6-betaAla11-Phe13-Nle14] bombesin (6-14) (peptide)”, the EC50, calcium mobilization (FLIPR) with RB3-AMH (rat) came to 370 nM; in the assay with RB3-IF (rat) it was 1300 nM; in the assay with RB3-SQT (rat), 390 nM; with RB3-VD (rat) it was 930 nM; in the assay with RBB3-E3 (rat; human), 2.8 nM; in assay [1], 1.2 nM. Also, the EC50, calcium mobilization (FLIPR) in assay [2] is 2200 nM. In addition, the fold improvement of dYB potency against rat BRS-3, calcium mobilization in the assay with RB3-AMH (rat) was found to be 6 fold; in the assay with RB3-SQT (rat), 5 fold. Besides, the fold difference in dYB potency between human and rodent BRS-3 in [2] was 1000 fold. For the same substance, the phosphatidylinositol (PI) hydrolysis, inositol monophosphate production, peptide at 10 uM in assay [2] stood at 9 fold. In assay [3], this substance had a fold lower affinity than human BRS-3 of 1000 fold.

For the substance “gastrin-releasing peptide (VPLPAGGGTVLTKMYPRGNHWAVGHLM; ends and bridges not checked; UniProt P07492 24-50, looked up) [GRP, bombesin-like peptide found in mammals]”, the “stimulation of phosphatidylinositol (PI) hydrolysis (inositol monophosphate production)” value with rat BRS-3 [4] is reported as “significant increase”. Besides, the intracellular calcium response result with rat BRS-3 [5] (concentrations below 1.0 uM) is “none of the four peptides could stimulate a significant calcium response”; with rat BRS-3 [5] (peptide at 10 uM), “transient increase in intracellular calcium concentration”. In addition, the binding affinity entry with RBB3-E3 is “uM low affinities”.

On to neuromedin B [NMB], for which the “stimulation of phosphatidylinositol (PI) hydrolysis (inositol monophosphate production)” value in the assay with rat BRS-3 [4] is reported as “significant increase”. Further, the values for the intracellular calcium response result in the assay with rat BRS-3 [5] (concentrations below 1.0 uM) and with rat BRS-3 [5] (peptide at 10 uM) were “none of the four peptides could stimulate a significant calcium response” and “transient increase in intracellular calcium concentration”, respectively. For the same substance, in the assay with RBB3-E3, the binding affinity result was “uM low affinities”.

For the substance phyllolitorin, the binding affinity entry at RBB3-E3 is “uM low affinities”.
